For the assay, the target named is USP-AE, segment from A region to E region of Ultraspiracle (USP) of Spodoptera litura, N-terminal His tag, expressed in Escherichia coli (Spodoptera litura). Nature of the assay: cell-based or functional assay.

As for “EcR-DF, segment from D region to F region of the molting hormone receptor (EcR) of Spodoptera litura, N-terminal His tag, expressed in Escherichia coli and refolded by gel filtration”, the molar ratio of EcR-DF to USP-AE at which ponasterone A binding saturates (USP-AE titrated onto a fixed amount of EcR-DF) (molar ratio EcR-DF:USP-AE (1:1)) was 1.
